Experiments:
MHET = experiment: Proxy for plastic degradation [kcat] (s⁻¹); conditions: pH 7.5
PET = experiment: Proxy for plastic degradation [Released monomer concentration (HPLC/LC-MS) (BHET+MHET+TPA)]; conditions: pH 7.5; part of the chain shown

| Protein | Proxy for plastic degradation (MHET) | Proxy for plastic degradation (MHET; part of the chain shown) | Proxy for plastic degradation (PET) |
| --- | --- | --- | --- |
| unnamed (protein) MKSSIPISVGMLATALISGCGSVPDNTSNEPTVPLASKELCEGIASGATKVNWPNQNTVVKASVWHAVTPATANAPELPEHCEVTGSINQRTGVDGYPYEIKMRLRMPADWNGRFFMEGGGGTNGSLSAALGSLGGGQTSNALSRRFATVSTDGGHDNAVNNNPAALGSVAFGMDPQARLDHGYNSYDQVTLAGKSAVSTFYGRGPDKSYFIGCSEGGREGMMFSQRFPAHYDGIVAGAPGYQLPKAGISGAWTTQSLAPAAVGVDPDGAPLVNKSFSDPDLYLLTQAILGSCDALDGLADGIVGNYSACQSLFDPSTALNPATGQPLRCTGAKTDDCLSPVQVDAIKRAMSGPVDTAGTALYNKWPWDTGMSGLNGTTYFQGWRSWWLGSYDSSTNNAQRVNGSSARSWLVDFATPPEPVPLNQVATRMMNFDFDVDPPKIFATSGLFTQPSMQWHGATSTDLNAFRSRGGKLMLYHGMADAAFSALDTIAYYERLSTAMPSVSDFSRLFLVPGMGHCSGGPGTDRFDMLTPLVAWVENGTAPARVEASSSTPGYFGVSARSRPLCPHPQIARYTGSGDINEATNFVCGNP | 3.8 |  |  |
| unnamed (protein) MQTTVTTMLLASVALAACAGGGSTPLPLPQQQPPQQEPPPPPVPLASRAACEALKDGNGDMVWPNAATVVEVAAWRDAAPATASAAALPEHCEVSGAIAKRTGIDGYPYEIKFRLRMPAEWNGRFFMEGGSGTNGSLSAATGSIGGGQIASALSRNFATIATDGGHDNAVNDNPDALGTVAFGLDPQARLDMGYNSYDQVTQAGKAAVARFYGRAADKSYFIGCSEGGREGMMLSQRFPSHYDGIVAGAPGYQLPKAGISGAWTTQSLAPAAVGLDAQGVPLINKSFSDADLHLLSQAILGTCDALDGLADGIVDNYRACQAAFDPATAANPANGQALQCVGAKTADCLSPVQVTAIKRAMAGPVNSAGTPLYNRWAWDAGMSGLSGTTYNQGWRSWWLGSFNSSANNAQRVSGFSARSWLVDFATPPEPMPMTQVAARMMKFDFDIDPLKIWATSGQFTQSSMDWHGATSTDLAAFRDRGGKMILYHGMSDAAFSALDTADYYERLGAAMPGAAGFARLFLVPGMNHCSGGPGTDRFDMLTPLVAWVERGEAPDQISAWSGTPGYFGVAARTRPLCPYPQIARYKGSGDINTEANFACAAPP |  | 27.6 | 0 mM |
| unnamed (protein) MNFPRASRLMQAAVLGGLMAVSAAATAQTNPYARGPNPTAASLEASAGPFTVRSFTVSRPSGYGAGTVYYPTNAGGTVGAIAIVPGYTARQSSIKWWGPRLASHGFVVITIDTNSTLDQPSSRSSQQMAALRQVASLNGTSSSPIYGKVDTARMGVMGCSMGGGGSLISAANNPSLKAAAPQAPWDSSTNFSSVTVPTLIFACENDSIAPVNSSALPIYDSMSRNAKQFLEINGGSHCCANSGNSNQALIGKKGVAWMKRFMDNDTRYSTFACENPNSTRVSDFRTANCS | 0.03 |  |  |
| unnamed (protein) MNFPRASRLMQAAVLGGLMAVSAAATAQTNPYARGPNPTAASLEASAGPFTVRSFTVSRPSGYGAGTVYYPTNAGGTVGAIAIVPGYTARQSSIKWWGPRLASHGFVVITIDTNSTLDQPSSRSSQQMAALRQVASLNGTSSSPIYGKVDTARMGVMGWSMGGGGSLISAANNPSLKAAAPQAPWDSSTNFSSVTVPTLIFACENDSIAPVNSSALPIYDSMSRNAKQFLEINGGSHSCANSGNSNQALIGKKGVAWMKRFMDNDTRYSTFACENPNSTRVSDFRTANCS |  | 0 |  |

From the PETadex activity labels (doi:10.1073/pnas.2006753117)
